Laboratory results taken from PMC9294072.
Read-outs that look alike come from different tables or passages of the source.

Tests used:
[1] = biological target: human N-terminal acetyltransferase D (hNatD) (human) (UniProt Q86UY6)
[2] = biological target: human N-terminal acetyltransferase D (hNatD) (human) (UniProt Q86UY6); remark: listed apart in the source
[3] = biological target: human N-terminal acetyltransferase D (hNatD) (human) (UniProt Q86UY6); remark: listed apart in the source

Row | kcat/Km of Nα-acetylation by hNatD (continuous fluorescence assay) [1] [M⁻¹ s⁻¹] | kcat/Km of Nα-acetylation by hNatD (continuous fluorescence assay) [2] [M⁻¹ s⁻¹] | Substance | further results
1 | 483 |  | oncohistone H4/H2A pentapeptide G4D (from UniProt P62805 2-6) | 
2 | 3500 |  | oncohistone H4/H2A pentapeptide G4V (from UniProt P62805 2-6) | 
3 |  |  | oncohistone H4/H2A pentapeptide R3C (SGCGK) | kcat/Km of Nα-acetylation by hNatD (MALDI-MS assay) [2]: 1830 M⁻¹ s⁻¹
4 |  | 4830 | oncohistone H4/H2A pentapeptide R3H (from UniProt P62805 2-6) | 
5 |  | 157 | oncohistone H4/H2A pentapeptide R3Q (from UniProt P62805 2-6) | 
6 |  |  | oncohistone H4/H2A pentapeptide S1L (from UniProt P62805 2-6) | kcat/Km of Nα-acetylation by hNatD (continuous fluorescence assay) [3]: 4.17 M⁻¹ s⁻¹
